T1: DMD 35-36x.81 (synthetic construct)
T1 chain: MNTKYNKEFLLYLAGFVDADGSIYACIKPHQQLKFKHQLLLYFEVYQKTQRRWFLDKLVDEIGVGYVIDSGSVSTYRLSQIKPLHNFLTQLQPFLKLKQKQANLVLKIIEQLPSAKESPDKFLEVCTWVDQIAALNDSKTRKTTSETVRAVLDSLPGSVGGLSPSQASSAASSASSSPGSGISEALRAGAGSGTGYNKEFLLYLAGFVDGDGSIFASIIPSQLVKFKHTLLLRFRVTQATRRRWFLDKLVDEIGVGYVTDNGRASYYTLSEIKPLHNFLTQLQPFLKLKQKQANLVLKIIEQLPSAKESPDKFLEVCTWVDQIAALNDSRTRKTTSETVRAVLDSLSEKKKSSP

T2: DMD 35-36x.63 (synthetic construct)
T2 chain: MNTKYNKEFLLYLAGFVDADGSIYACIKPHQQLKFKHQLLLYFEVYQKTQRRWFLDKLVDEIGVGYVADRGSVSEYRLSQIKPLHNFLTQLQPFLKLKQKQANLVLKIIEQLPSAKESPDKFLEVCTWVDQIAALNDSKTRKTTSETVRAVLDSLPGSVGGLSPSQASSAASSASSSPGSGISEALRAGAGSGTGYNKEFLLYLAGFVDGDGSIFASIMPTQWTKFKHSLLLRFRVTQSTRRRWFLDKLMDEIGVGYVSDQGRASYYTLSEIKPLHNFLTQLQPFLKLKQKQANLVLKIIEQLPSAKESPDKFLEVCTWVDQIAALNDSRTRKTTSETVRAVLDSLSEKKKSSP

T3: DMD 37-38x.15 (synthetic construct)
T3 chain: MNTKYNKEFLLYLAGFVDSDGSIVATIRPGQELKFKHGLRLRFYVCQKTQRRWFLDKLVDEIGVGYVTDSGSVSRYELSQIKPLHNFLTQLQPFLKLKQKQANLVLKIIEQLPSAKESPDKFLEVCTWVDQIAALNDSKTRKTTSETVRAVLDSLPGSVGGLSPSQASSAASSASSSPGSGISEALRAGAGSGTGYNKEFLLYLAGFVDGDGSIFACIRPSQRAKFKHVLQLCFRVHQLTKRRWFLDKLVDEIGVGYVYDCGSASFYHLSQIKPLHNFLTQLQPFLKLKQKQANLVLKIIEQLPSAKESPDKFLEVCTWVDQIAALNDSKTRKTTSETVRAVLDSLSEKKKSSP

T4: DMD 37-38x.79 (synthetic construct)
T4 chain: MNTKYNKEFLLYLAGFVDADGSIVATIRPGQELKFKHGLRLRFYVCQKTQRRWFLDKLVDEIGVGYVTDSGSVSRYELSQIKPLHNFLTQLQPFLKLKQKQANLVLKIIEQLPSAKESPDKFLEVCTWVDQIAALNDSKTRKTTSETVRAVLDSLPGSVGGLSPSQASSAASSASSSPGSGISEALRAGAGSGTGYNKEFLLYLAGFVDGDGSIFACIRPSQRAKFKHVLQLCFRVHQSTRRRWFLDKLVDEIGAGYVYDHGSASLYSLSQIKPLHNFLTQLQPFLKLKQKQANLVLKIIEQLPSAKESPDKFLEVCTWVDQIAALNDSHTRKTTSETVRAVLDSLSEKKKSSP

T5: DMD 37-38x.66 (synthetic construct)
T5 chain: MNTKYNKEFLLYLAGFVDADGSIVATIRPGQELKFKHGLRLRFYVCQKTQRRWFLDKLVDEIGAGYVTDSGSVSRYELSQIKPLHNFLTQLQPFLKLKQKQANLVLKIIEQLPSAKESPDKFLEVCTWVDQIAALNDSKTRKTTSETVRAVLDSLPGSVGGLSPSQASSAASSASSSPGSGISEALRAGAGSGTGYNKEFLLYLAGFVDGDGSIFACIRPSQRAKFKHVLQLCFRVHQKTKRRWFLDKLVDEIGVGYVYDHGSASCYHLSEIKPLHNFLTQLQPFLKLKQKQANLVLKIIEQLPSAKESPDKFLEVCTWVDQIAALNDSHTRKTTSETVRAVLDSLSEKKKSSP


Tests used:
Test in all cases: cell_activity; MRC5 cells, 2 ng mRNA; also active in CHO GFP reporter
Conditions in all cases: tags: N-terminal SV40 NLS
DMD 35-36x.81 = target: T1, DMD 35-36x.81
Description: (§1) In these experiments, 1e6 MRC5 cells were electroporated with 2 ng or 100 ng mRNA encoding DMD meganucleases (DMD 19-20x.13, DMD 19-20x.87, DMD 29-30x.18, DMD 29-30x.40, DMD 35-36x.63, DMD 35-36x.81, DMD 37-38x.15, DMD 37-38x.66, or DMD 37-38x.79), or GFP using the Lonza Amaxa 4D system. Cells were collected at two days post electroporation for gDNA preparation and evaluated for transfection efficiency using a Beckman Coulter CytoFlex S cytometer. Transfection efficiency exceeded 90%. Additional time points were collected at five- and eight-days post electroporation for gDNA extractions. gDNA was prepared using the Macherey Nagel NucleoSpin Blood QuickPure kit.

DMD 35-36x.63 = target: T2, DMD 35-36x.63
Description: as §1

DMD 37-38x.15 = target: T3, DMD 37-38x.15
Description: as §1

DMD 37-38x.79 = target: T4, DMD 37-38x.79
Description: as §1

DMD 37-38x.66 = target: T5, DMD 37-38x.66
Description: as §1

Binder	activity (DMD 35-36x.81)	activity (DMD 35-36x.63)	activity (DMD 37-38x.15)	activity (DMD 37-38x.79)	activity (DMD 37-38x.66)
DMD 35-36 recognition sequence (dsDNA) DNA 1: CTACATGGTGTATCTGACTAAG DNA 2: CTTAGTCAGATACACCATGTAG	> 30 % indel	> 30 % indel	–	–	–
DMD 37-38 recognition sequence (dsDNA) DNA 1: CTGGCCGAAGTATAGGAATATG DNA 2: CATATTCCTATACTTCGGCCAG	–	–	> 30 % indel	> 30 % indel	> 30 % indel
